Here are results for 1 molecule from patent US8628762B2, “T-helper cell type 17 lineage-specific adjuvants, compositions and methods” (Icahn School of Medicine at Mount Sinai, priority 2008, dated 2014).

The assay concerns Naïve CD4 T-cells. The assay is described as follows: In vitro T-cell differentiation in DC conditioned medium, IL-17/IL-10 in supernatants by ELISA. It is filed as cell-based, C57BL/6J mice. Particulars: IL-6 supplemented to DCCM-apoptotic B-cells. As for the experimental part:
Bone marrow (BM)-derived GM-CSF DC cultures were grown in RPMI supplemented with GM-CSF and 5% foetal bovine serum (FBS), plus 100 μg/mL penicillin, 100 μg/mL streptomycin, 2 mM L-glutamine, 10 mM HEPES, 1 nM sodium pyruvate, 1×MEM nonessential amino acids, and 2.5 μM β-mercaptoethanol (all from Sigma-Aldrich, St. Louis, Mo.), as previously dcseribed^1. Semi-adherent cells were harvested on ice on day 5 and re-plated immediately in fresh GM-CSF medium at 1×10^6 cells/well in 24-well tissue culture-treated plates. Soluble or phagocytic stimuli were added right away to the plates in the same medium and the cells were centrifuged for 2 min at 2000 rpm. Supernatants (conditioned medium, CM) were collected after 18 hours. LPS (from E. coli, serotype 055:B5, L-2880) was purchased from Sigma-Aldrich. BMDC were treated with various doses of soluble LPS or 2:1 A20 LPS blasts:DC to titrate the LPS such that levels of IL-6 produced by DC in response to these stimuli was similar. Soluble LPS was used at a final concentration of 1 ng/mL. The A20 B-cell line was obtained from the ATCC (TIB-208). A20 LPS blasts were prepared by culturing A20 cells at 1×10^6 cells/mL, 3 mL/well in 6-well tissue culture plates for four days in RPMI medium supplemented with 10% FBS, with 100 μg/mL penicillin, 100 μg/mL streptomycin, 2 mM L-glutamine, 10 mM HEPES, 1 nM sodium pyruvate, plus 25 μg/mL LPS, as previously described in Blander, J. M. and Medzhitov, R. (2004) Science 304(5673):1014. […] Cells were centrifuged, counted, and apoptosis was induced by UV irradiation at 350 mJ. […]
Naïve CD4 T cells were isolated first by sorting with MACS® CD4^+ beads (Miltenyi Biotech, Auburn, Calif.) according to manufacturer's instructions and then by fluorescence activated cell sorting (FACS) using a MoFlo™, Vantage, or Influx™ cell sorter for CD25^−CD44^lowCD62L^high cells using allophycocyanin (APC)-conjugated anti-CD25 monoclonal antibody (mAb) (clone PC61.5), FITC-conjugated CD62L mAb (clone MEL-14), and PE-Cy5-conjugated CD44 mAb (clone IM7) (all from eBioscience™, San Diego, Calif.). […]

B1: IL-6: cytokine interleukin-6 (Peprotech), 50 ng/mL (protein, UniProt P08505 25-211, looked up)
Interleukin-6: FPTSQVRRGDFTEDTTPNRPVYTTSQVGGLITHVLWEIVEMRKELCNGNSDCMNNDDALAENNLKLPEIQRNDGCYQTGYNQEICLLKISSGLLEYHSYLEYMKNNLKDNKKDKARVLQRDTETLIHIFNQEVKDLHKIVLPTPISNALLTDKLESQKEWLRTKTIQFILKSLEEFLKVTLRSTRQT
As to B1, the IL-17 production entry is given as “restored IL-17 production”.
